How the values were obtained:
[1] = molecular target: T1, recombinant human EGFR extracellular domain with 6xHis (human, UniProt P00533 25-645); assay: SPR competition, competitor 1284
T1 construct: In-house produced; also called 6xHis EGFR ECD; soluble human EGFR ECD; not shown: 6xHis tag
Method: (§1) SPR analysis was performed on a Biacore 3000 machine containing four flow cells. A CM5 Biacore chip was conjugated with 10,000 Resonance units (Ru) polyclonal anti-His antibody to flow cells 1-4 according to the manufacturer's instructions. […] Immediately after antigen injection the maximal binding of the Anti-EGFR mAb without competition was established in each flow cell during a reference run. Briefly 5 μl antibody at a concentration of 40 μg/ml was injected over all flow cells with captured EGFR followed by stripping of the antibody/antigen complex with a low pH acid wash (10 sec. contact time with 10 mM Glycine-HCl, pH2). After the determination of Anti-EGFR antibody maximal binding to each flow cell, a competition run was performed during the same Biacore cycle. Flow cells were first saturated with EGFR ECD antigen followed by injection of different reference antibodies or Anti-EGFR antibodies into separate flow cells using the same antigen saturating conditions as outlined above. This step was immediately followed by a second injection of Anti-EGFR antibody over the flow cell saturated with EGFR antigen and competition antibody to minimize the dissociation of either antigen or blocking antibody. Then the antibody/antigen complexes were stripped off with a low pH acid wash (10 sec. contact time with 10 mM Glycine-HCl, pH 2) and the whole cycle beginning with the reference run was repeated with a new Anti-EGFR antibody. The degree of inhibition of tested Anti-EGFR antibodies were determined by comparing the Ru max value of the individual Anti-EGFR antibody before and after competition by introduction of report points recorded two seconds before and after injection of each sample.

[2] = molecular target: T1, recombinant human EGFR extracellular …; assay: SPR competition, competitor 1254
Method: as §1

[3] = molecular target: T1, recombinant human EGFR extracellular …; assay: SPR competition, competitor 992 corr
Summary of the method: (§2)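 Read-out: percent inhibition from Ru max of each anti-EGFR mAb with and without prior competitor binding, taken at report points 2 s before and after injection. His-tagged EGFR ECD was captured via anti-His antibody on a CM5 chip.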

[4] = molecular target: T1, recombinant human EGFR extracellular …; assay: SPR competition, competitor 1024
Method: as §1

[5] = molecular target: T1, recombinant human EGFR extracellular …; assay: SPR competition, competitor ICR10
Method: as §1

[6] = molecular target: T1, recombinant human EGFR extracellular …; assay: SPR competition, competitor 1344
Method: as §1

[7] = molecular target: T1, recombinant human EGFR extracellular …; assay: SPR competition, competitor Erbitux
Method: as §1

[8] = molecular target: T1, recombinant human EGFR extracellular …; assay: SPR competition, competitor 1347
Method: as §1

[9] = molecular target: T1, recombinant human EGFR extracellular …; assay: SPR competition, competitor Ab-3
Method: as §1

[10] = molecular target: T1, recombinant human EGFR extracellular …; assay: SPR competition, competitor Ab-5
Method: as §1

[11] = molecular target: T1, recombinant human EGFR extracellular …; assay: SPR competition, competitor Ab-1
Method: as §1

[12] = molecular target: T1, recombinant human EGFR extracellular …; assay: SPR competition, competitor Erbitux; remark: listed apart in the source
Summary of the method: as §2

[13] = molecular target: T1, recombinant human EGFR extracellular …; assay: SPR competition, competitor Ab-11
Method: as §1

[14] = molecular target: T1, recombinant human EGFR extracellular …; assay: SPR competition, competitor Vectibix
Method: as §1

[15] = molecular target: T1, recombinant human EGFR extracellular …; assay: SPR competition, competitor 1257
Method: as §1

[16] = molecular target: T1, recombinant human EGFR extracellular …; assay: SPR competition, competitor 1260
Method: as §1

[17] = molecular target: T1, recombinant human EGFR extracellular …; assay: SPR competition, competitor 1208
Method: as §1

[18] = molecular target: T1, recombinant human EGFR extracellular …; assay: SPR competition, competitor Vectibix; remark: listed apart in the source
Summary of the method: as §2

[19] = molecular target: T1, recombinant human EGFR extracellular …; assay: SPR competition, competitor 1320
Method: as §1

[20] = molecular target: T1, recombinant human EGFR extracellular …; assay: SPR competition, competitor 1030corr
Method: as §1

[21] = molecular target: T1, recombinant human EGFR extracellular …; assay: SPR competition, competitor 1277
Method: as §1

[22] = molecular target: T1, recombinant human EGFR extracellular …; assay: SPR competition, competitor Ab-10
Method: as §1

[23] = molecular target: T1, recombinant human EGFR extracellular …; assay: SPR competition, competitor 1261
Method: as §1

Binder	% inhibition [1]	% inhibition [2]	% inhibition [3]	% inhibition [4]	% inhibition [5]	% inhibition [6]	% inhibition [7]	% inhibition [8]	% inhibition [9]	% inhibition [10]	% inhibition [11]	% inhibition [12]	% inhibition [13]	% inhibition [14]	% inhibition [15]	% inhibition [16]	% inhibition [17]	% inhibition [18]	% inhibition [19]	% inhibition [20]	further results
antibody 1344 (antibody, human IgG1, kappa, V domains shown, Chimeric IgG1 kappa) VH: QVQLKESGPGLVAPSQSLSITCTVSGFSLTIYGVHWVRQPPGKGLEWLGVIWAGGNTNYNSALMSRLSISKDNSKSQVFLKMNSLQTDDTAMYFCARGYGYNLDYWGQGTTLTVSS VL: DIQMTQTTSSLSASLGDRVTISCSASQGISNYLNWYQQKPDGTVKLLIYYTSSLHSGVPSRFSGSGSGTDYSLTISNLEPEDIATYYCQQYSKLPYTFGGGTKLEIKR	81%	10%	9%	3%	87%	83%	-4%	15%	25%	-3%	-2%	-4%	86%	-5%	83%	87%	3%	8%	8%	31%	% inhibition [21]: 10%; % inhibition [22]: 0%; % inhibition [23]: 71%
antibody 1260 (antibody, human IgG1, kappa, V domains shown, Chimeric IgG1 kappa) VH: QVQLKESGPGLVAPSQSLSITCTVSGFSLTTYGVHWVRQPPGKGLEWLGVIWAGGSTNYNSALMSRLSIKKDNSKSQVFLKMNSLQTDDTAMYYCARAYGYNFDYWGQGTTLTVSS VL: DIQMTQTTSSLSASLGDRVTISCSASQGITNYLNWYQQKPDGTVKLLIYYSSSLHSGVPSRFSGSGSGTDYSLTISNLEPEDIATYYCQQYSEIPYTFGGGTKLELKR	67%	22%	-10%	33%	91%	83%	8%	46%	64%	1%	7%	8%	99%	10%	55%	88%	33%	31%	26%	18%	% inhibition [21]: 25%; % inhibition [22]: 12%; % inhibition [23]: 97%
antibody 1257 (antibody, human IgG1, kappa, V domains shown, Chimeric IgG1 kappa) VH: EVQLQQSGPELVKPGASVKIPCKTSGYTFTDYNMAWVKQSHGKSLEWIGDIIPNNGGAIYNQKFKGKATLTVDKSSSTASMELRSLTSEDTAVYFCARKNIYYRYDGAGALDYWGQGTSVTVSS VL: QIVLTQSPAIMSASPGEKVTMTCSASSSVSYIYWYQQKPGSSPRLLIYDASNLASGVPVRFSGSGSGTSYSLTISRMEAEDAATYYCQQWSSYPITFGSGTKLEIKR	16%	8%	16%	17%	22%	80%	0%	21%	85%	-5%	-1%	0%	100%	-2%	90%	68%	17%	15%	15%	4%	% inhibition [21]: 11%; % inhibition [22]: 1%; % inhibition [23]: 103%
antibody 1261 (antibody, human IgG1, kappa, V domains shown, Chimeric IgG1 kappa) VH: EVQLVESGGGLVKPGGSLKLSCAVSGFTFSSYVMSWVRQTPEKRLEWVATITSGGRNIYYLDSVKGRFTISRDNAKNTLYLQMSSLRSEDTAMYYCARHEDYRYDGYYAMDYWGQGTSVTVSS VL: QIVLTQSPAIMSASPGEKVTITCSASSSVSYMHWFQQKPGTSPKLWIYSTSNLASGVPARFSGSGSGTSYSLTISRMEAEDAATYYCQQRSSYPYTFGGGTKLELKR	-8%	-12%	14%	-24%	24%	65%	-2%	4%	54%	-3%	-4%	-2%	94%	-5%	58%	75%	-24%	-21%	-18%	-6%	% inhibition [21]: -19%; % inhibition [22]: -6%; % inhibition [23]: 95%
